We go through 1 substance from PMC6642535.

One may read the stoichiometry N as the number of molecules, sites or subunits per partner or assembly.

The target of this assay is Flag-tagged wild-type GAPDH (human) (UniProt P04406). Put plainly: native gel or EMSA; lysates of stable PANC-1 lines (GFP/wild-type GAPDH, GFP-PRMT3/wild-type GAPDH, GFP-PRMT3/R248K-GAPDH) on 10% native gel; tetrameric form.

Flag-tagged wild-type GAPDH, P04406 1-335 (enzyme; other documents disagree on this pair), sequence (P04406 whole entry): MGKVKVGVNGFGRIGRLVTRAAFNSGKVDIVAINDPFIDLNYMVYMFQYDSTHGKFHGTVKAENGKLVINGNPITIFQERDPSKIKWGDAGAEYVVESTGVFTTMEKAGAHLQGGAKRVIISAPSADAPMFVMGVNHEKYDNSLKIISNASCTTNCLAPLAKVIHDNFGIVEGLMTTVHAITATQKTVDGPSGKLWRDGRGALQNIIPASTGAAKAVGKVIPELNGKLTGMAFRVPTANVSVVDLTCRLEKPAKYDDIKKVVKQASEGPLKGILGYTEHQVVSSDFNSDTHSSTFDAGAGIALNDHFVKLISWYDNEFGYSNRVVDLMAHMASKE

In the case of “Flag-tagged wild-type GAPDH, P04406 1-335 (enzyme; other documents disagree on this pair)”, the stoichiometry N stood at 4.
